Results as given in the supplement of paper PMC12764529.
± gives the half width of the 95% confidence interval.

Legend:
[1] = folding stability dG unfold (combined trypsin and chymotrypsin); higher = more stable
Procedure, shortened: (§1)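 Sequencing followed digestion of designed mini-proteins with trypsin and chymotrypsin, each at 11 concentrations in threefold dilutions together with a no-protease condition. The mini-proteins were under 80 residues, had no cysteine, sat in a PA-tagged cDNA display construct, and were kept only if AlphaFold2 dimer inter-PAE was above 15. From the counts, Bayesian fitting gave K50, and unfolding free energy was derived against a sequence-predicted unfolded-state K50 and a shared folded-state K50, per protease or combined.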

[2] = folding stability dG unfold from trypsin proteolysis; higher = more stable
Procedure, shortened: as §1

[3] = folding stability dG unfold from chymotrypsin proteolysis; higher = more stable
Procedure, shortened: as §1

Sequence	folding stability dG unfold [1]	folding stability dG unfold [2]	folding stability dG unfold [3]
SAGLPIPEGATVKTLESSESVEGNKTVKTDKIIVTFPDGSTKEVEVVTTYDPNGNPTTTYIVGNKKIPLSAG [r5_507_JUSTAS]	1.32 ± 0.059 kcal/mol	1.45 ± 0.052 kcal/mol	1.19 ± 0.058 kcal/mol
SAGGSAGGSEWTIESIRPRPDGSLIARVRPEGVNVSVEVEFDTLEELLAFAKLLEELGGKVTGSAGGSAGGS [r20_177_TrMRF]	1.82 ± 0.058 kcal/mol	1.62 ± 0.04 kcal/mol	1.98 ± 0.023 kcal/mol
SGMIKVSVEEKELKDGTKLYTITVEHPDPEVAKETAEKIVKEKFPKNYKVETKLTESGKVIAPVIVPKKKSA [r9_646_JUSTAS]	0.9 ± 0.2 kcal/mol	0.379 ± 0.09 kcal/mol	1.1 ± 0.15 kcal/mol
SAGGSAGGSAGFFRVDIDIMMSPEMLDLMKKNPGLPPGQEIPIMVVIKREPVPYDPNGKLSAGGSAGGSAGG [r17_194_TrROS]	1.8 ± 0.051 kcal/mol	1.375 ± 0.013 kcal/mol	2.1 ± 0.043 kcal/mol
SAGGSAGGSAGGPYWRVKIEWMDPNGKKKEHTFTFPPGWPLEEIAEELKPNGYKIEVEPLSAGGSAGGSAGG [r7_226_TrROS]	1.46 ± 0.085 kcal/mol	0.962 ± 0.044 kcal/mol	1.7 ± 0.1 kcal/mol
SMVIEIPDGTPLEEIIKKVKEAKEKGEPMEVVVTVPNDESVIQALKEAGFEVEVEKDEVKNVTLYKVKLPSA [r9_759_JUSTAS]	2.59 ± 0.076 kcal/mol	2.7 ± 0.15 kcal/mol	2.53 ± 0.025 kcal/mol
SKGKKTVTINFMLKVEDPEDLPPGQEVKIPPEFIDFLRDQGFKITEIKIRVVPPPDGDVYVMFSSTIEVDSA [r9_465_TrROS]	2.88 ± 0.34 kcal/mol	1.99 ± 0.097 kcal/mol	3.53 ± 0.1 kcal/mol
SANVRRREIRIPAKDMPPNQIRDALRDLGFPPSKIENLDIERHKGNMITVKIYWTFENGQKQKIELHIPSAG [r14_30_TrROS]	1.11 ± 0.19 kcal/mol	-0.105 ± 0.24 kcal/mol	1.29 ± 0.21 kcal/mol
SAGGMELLGEVTVEKPGKPITFPIYRVPDEPREVVEVRELDPSTGKWTPIGTRELPPGEAERAIEELSAGGS [r8_423_JUSTAS]	0.544 ± 0.16 kcal/mol	0.36 ± 0.08 kcal/mol	0.573 ± 0.17 kcal/mol
SAGGSAGGKEKLIVKIKIEKKVKLENGEEKKVKKTIVVEMTPEEVKELLKKLKKENVTEVEIFPSAGGSAGG [r6_984_TrROS_Hall]	2.55 ± 0.26 kcal/mol	2.7 ± 0.17 kcal/mol	2.51 ± 0.31 kcal/mol
SAGGSAGGSASNVKILGLVSVDPETGLVRLAAYDPETGKVLYFIAPNADGEPLLLEVEENPGSAGGSAGGSA [r18_296_TrMRF]	2.21 ± 0.071 kcal/mol	1.8 ± 0.041 kcal/mol	2.44 ± 0.056 kcal/mol
SAGGSAGGSAGGDPNDKPKEERRIKIKVRPTNVQRDPDNGMLWYSWRLEGLSITIMIPASAGGSAGGSAGGS [r10_962_TrROS]	2.85 ± 0.1 kcal/mol	1.86 ± 0.08 kcal/mol	3.43 ± 0.035 kcal/mol
SAGMNLDNMKIKEIKLQVNPDGSVEVPFEFRFPNGKPMKVSMRVNNGMIEIYYPNGWPITIDIPPGAFSAGG [r19_84_TrROS]	1.36 ± 0.15 kcal/mol	1.01 ± 0.15 kcal/mol	1.48 ± 0.16 kcal/mol
SAGDQTITIKIPNAPPGSRVQIMLFDPGKIKGFHEIDPDDPKEVEIKIELPPYTIMIYVADGNVFPIPISAG [r5_646_TrROS]	2.46 ± 0.21 kcal/mol	1.94 ± 0.12 kcal/mol	2.82 ± 0.059 kcal/mol
SAGGSAGGSASMTVRATLPNGEEIEFEADVIKADPGGDSVTVYLILPNGGEIPFEVELEEEESAGGSAGGSA [r18_163_TrMRF]	0.574 ± 0.076 kcal/mol	0.37 ± 0.042 kcal/mol	0.706 ± 0.19 kcal/mol
SAGGSKPKTVEITLEVDGKKVKITVTEKDGKLTVTITFPDGTKLTIELPENMSIEEALKKALEALKSAGGSA [r2_92_TrROS_Hall]	2.87 ± 0.096 kcal/mol	3.28 ± 0.13 kcal/mol	2.4 ± 0.062 kcal/mol
SALEIEIEQDEDGNMRISVYLPGWKPIEEQPVPPGDGMKTFIIKLPDRVLMITFTNGGIEPNPVPLNDISAG [r14_403_TrROS]	2.51 ± 0.23 kcal/mol	2.44 ± 0.17 kcal/mol	2.69 ± 0.092 kcal/mol
SAGGSAGGSAGEPVEVTPLSTETVPDSDTTVTYYKVTYPGGKEAIRTVYSDGTETTTPLPSAGGSAGGSAGG [r11_637_JUSTAS]	0.969 ± 0.17 kcal/mol	0.915 ± 0.12 kcal/mol	1.02 ± 0.1 kcal/mol
SAGGSAGGSAVTVDPSSNVVTTTDPATGTSTVTTTPPLPNGTPVLTSTTTTDAAGTPTTTTVTSAGGSAGGS [r12_952_JUSTAS]	2.04 ± 0.059 kcal/mol	2.63 ± 0.12 kcal/mol	1.38 ± 0.049 kcal/mol
SAGGSAGGSKTIKIEIEKMSEEELKNLTAEEIAKLLGVKEVKVTKEKIEITLTEEELKKLEKKSAGGSAGGS [r12_178_TrROS_Hall]	0.856 ± 0.14 kcal/mol	0.257 ± 0.099 kcal/mol	1.24 ± 0.022 kcal/mol
VDPDDPEYQRFVYFVQELAKTIVEEHQEEGPTVDELYITVDPNNVKIEPVDMPPDEWEEHQKEGRPVIPIRS [r1_134_TrROS]	-0.0608 ± 0.28 kcal/mol	0.179 ± 0.14 kcal/mol	0.187 ± 0.33 kcal/mol

Sequence	folding stability dG unfold [1]	folding stability dG unfold [2]	folding stability dG unfold [3]
SAGGSAMTKVTVTFDPVTGTYTIKTTDSKGPSEYPLPKSFLEKTPLSEVAKKLNLNISEFTIEPNPSAGGSA [r15_801_JUSTAS]	1.14 ± 0.092 kcal/mol	0.771 ± 0.044 kcal/mol	1.25 ± 0.099 kcal/mol
SKKKTLKIVDKETNVVIEMTAEELAEKLGLSVEDLEIEVVDLKTKEVKTIKIKLPKPKPEEKKKVKEEEKSA [r9_819_TrROS_Hall]	0.75 ± 0.15 kcal/mol	-0.336 ± 0.23 kcal/mol	1.18 ± 0.046 kcal/mol
SPYTVDSVSEDPSRNSTTVLNFPDGTTVTVTYDPSNPSLATVTVRPADGTTETTTVPLDEPFVVNLTVNPSA [r9_875_JUSTAS]	1.02 ± 0.21 kcal/mol	0.922 ± 0.074 kcal/mol	0.94 ± 0.17 kcal/mol
SAGGSAGGSAGGPANLNDEPVLLIPVSSELLKLIPAEKLVELAAKLASPNVKRIYVLAPESAGGSAGGSAGG [r7_487_TrMRF]	0.424 ± 0.088 kcal/mol	0.12 ± 0.11 kcal/mol	0.58 ± 0.13 kcal/mol
SAGGSLVYRLVLRRGDKVLVVTAPFDSPSDALAAASRLLPGGAELLLEFFDPRTGEPLGTVPFRSVSAGGSA [r2_390_TrMRF]	2.22 ± 0.034 kcal/mol	2.257 ± 0.015 kcal/mol	2.06 ± 0.039 kcal/mol
SAGMKVTTKTYTLTLTLPDGTRELKVTFTTPPDGYTATITDPNSSKVITLPFSSEEEARSAIEAIAARLSAG [r5_480_JUSTAS]	2.62 ± 0.092 kcal/mol	2.48 ± 0.036 kcal/mol	2.7 ± 0.06 kcal/mol
SAGGSAGGSAGGSVIEVKDPNGKKYIIIKTPDPNVYPVTVIPPDGTTTVTPVSDYSKLLSSAGGSAGGSAGG [r7_769_JUSTAS]	-0.527 ± 0.42 kcal/mol	-0.893 ± 0.4 kcal/mol	-0.464 ± 0.56 kcal/mol
SAGGSAGGMNIQILKVDPDNGTITLAIPVDNWIVAISIKIRPDPNNPGMFKLDIDIHWFPADDISAGGSAGG [r6_372_TrROS]	4.28 ± 0.091 kcal/mol	3.77 ± 0.14 kcal/mol	4.44 ± 0.11 kcal/mol
SAGGSAGGSELEKALASAKPGEEVTVTVESTTPDGTPSVEIVEVKVEAETPSPGKENLEKNRLVSAGGSAGG [r6_893_JUSTAS]	-0.112 ± 0.44 kcal/mol	-0.602 ± 0.23 kcal/mol	0.0837 ± 0.065 kcal/mol
SAGGSAMPLLKPPKTIRLRILFKVPEPGKELDITEEAVRELFNPFGAKVRIYRDGDYVLIEVEFVVSAGGSA [r15_377_TrMRF]	3.85 ± 0.15 kcal/mol	4.03 ± 0.097 kcal/mol	3.37 ± 0.089 kcal/mol
SAGGSAKKLPAEAVAKELAERLSKELGLTIKRVEVEVIDPEKGLVRVTVVYETPYGYLKREILLPVSAGGSA [r15_32_TrMRF]	3.31 ± 0.1 kcal/mol	1.83 ± 0.026 kcal/mol	3.825 ± 0.033 kcal/mol
SAGGSAMLDNLVPVGSVTVVERFPDGLLRVVNYTFWRDPESGAWYVSADVEVFPLLPEDPVLLEAGSAGGSA [r15_207_TrMRF]	3.6 ± 0.11 kcal/mol	2.24 ± 0.11 kcal/mol	3.88 ± 0.048 kcal/mol
SAGLKVKIVKAEVKNGYLTLEVEVTGKDGSKKPFKIKIKLKPVPKPKPVFKFTKLPNGEIKVEVFDPSSAGG [r19_172_TrMRF]	3.04 ± 0.08 kcal/mol	2.76 ± 0.062 kcal/mol	3.212 ± 0.03 kcal/mol
SKIRIIRPERSLEIDLPKSARIEFDPETRRIYFINPDGERLEFPLGPNAVIIPGDDEITIIDPPASPENPSA [r9_653_TrMRF]	3.19 ± 0.079 kcal/mol	2.21 ± 0.038 kcal/mol	3.68 ± 0.042 kcal/mol
SAGGMEEIVKALPPEAGVVEIESEPLPLEDSILRRYRLRVYNPATGKWEELEVLIEYDKDGNIRRIVASAGG [r13_358_TrMRF]	3.6 ± 0.2 kcal/mol	2.5 ± 0.043 kcal/mol	3.94 ± 0.051 kcal/mol
SAMTPEEIKERLAAELPPSAEVMTTETFKEGDVEYVKITLRTPDSLSEATYNLETGEIERTPIGLDVPQSAG [r14_737_JUSTAS]	0.792 ± 0.15 kcal/mol	0.423 ± 0.13 kcal/mol	0.923 ± 0.13 kcal/mol
SAGGSARVVILPDGYLLVEVDGKPFLFGPNDEVEIEEEGDELILRLRLRDKDGKEVGEFPFRFRLESAGGSA [r15_424_TrMRF]	2.9 ± 0.055 kcal/mol	2.71 ± 0.039 kcal/mol	3.026 ± 0.016 kcal/mol
SAGGSAGGSAGMKTTYDPDTNKLSITLPNGTVATYYLGTGVIEIPDEVSSKEDIKVEKAASAGGSAGGSAGG [r17_174_JUSTAS]	0.79 ± 0.15 kcal/mol	0.321 ± 0.11 kcal/mol	0.956 ± 0.17 kcal/mol
SAGPEREVEVETLVIEAEDGKERLVLRLVRVDGRLYLEVRRYRDGKWEEVARFEAPEEITLSPELLKALSAG [r5_490_TrROS_Hall]	4.16 ± 0.078 kcal/mol	4.09 ± 0.091 kcal/mol	4.219 ± 0.039 kcal/mol
SAGGMVTLTYTDLVEEDPEVKAAKARELAEELREKGYTVTDATFDPEAGTLTITVSADDATLEEIAASAGGS [r8_344_TrMRF]	1.27 ± 0.099 kcal/mol	1.26 ± 0.071 kcal/mol	1.1 ± 0.065 kcal/mol
SAGGGFEEIIEKAIAKAKELFPDTGAVVPITETVYDPVKKKPIVIEVLVEFDKDGKIKKVEILKISELSAGG [r13_770_TrMRF]	2.09 ± 0.11 kcal/mol	2.86 ± 0.2 kcal/mol	1.34 ± 0.044 kcal/mol
